# Test results reported in patent publication US11278600B2, “Human alpha-galactosidase variants” (Codexis, Inc., priority 2014, dated 2022).
# Residue numbers refer to the chain shown, from its start.
# B1: 586 (protein)
# chain: LDNGLARTPTMGWLHWERFMCNLDCQEEPDSCISEKLFMEMAERMVSEGWKDAGYEYLCIDDCWMAPQRDSEGRLQADPQRFPHGIRQLANHVHSKGLKLGIYADVGNKTCAGFPGSFGYYDIDAQTFADWGVDLLKFDGCYCDSLENLADGYKHMSLALNRTGRSIVYSCEWPLYMWPFQKPNYTEIRQYCNHWRNFADIDDSWASIKNILDWTSRNQERIVDVAGPGGWNDPDMLVIGNFGLSWDQQVTQMALWAIMAAPLFMSNDLRHISPQAKALLQDKDVIAINQDPLGKQGYQLRKGDNFEVWERPLSGDAWAVAIINRQEIGGPRSYTIPVASLGKGVACNPACFITQLLPVKRQLGFYNWTSRLKSHINPTGTVLLQLENTMQMSLKDLL
# modifications: Synthetic Polypeptide sequence of Variant No. 586 of mature Human GLA
# B2: 587 (protein)
# chain: B1 chain with N210R
# modifications: Synthetic Polypeptide sequence of Variant No. 587 of mature Human GLA
# B3: 588 (protein)
# chain: B1 chain with K96A, N210S
# modifications: Synthetic Polypeptide sequence of Variant No. 588 of mature Human GLA
# B4: 589 (protein)
# chain: B1 chain with K96W, N210S
# modifications: Synthetic Polypeptide sequence of Variant No. 589 of mature Human GLA
# B5: 590 (protein)
# chain: B1 chain with P179M, N210S
# modifications: Synthetic Polypeptide sequence of Variant No. 590 of mature Human GLA
# B6: 591 (protein)
# chain: B1 chain with R189K, N210S
# modifications: Synthetic Polypeptide sequence of Variant No. 591 of mature Human GLA
# Test: HTP-analysis of yeast culture supernatants, no challenge (MUGal hydrolysis)
# Format: biochemical
# Conditions: activity of the variant/activity of Rd3BB (SEQ ID NO: 13)
# Method in brief: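 Activity read as 4-methylumbelliferyl α-D-galactopyranoside hydrolysis: fluorescence (355/448 nm) after sodium carbonate stop, following 30-180 min at 37° C with 2 mM MUGal stock at pH 4.6–4.8. Enzyme source is unchallenged culture supernatant of INVSc1 yeast expressing GLA variants, grown 66-84 h at 30° C.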
row,Molecule,Relative Activity of GLA Variants After No Challenge (NC)
1,B1,+ (+ = 1.5 to 5 relative activity over Rd3BB (SEQ ID NO: 13))
2,B2,+ (+ = 1.5 to 5 relative activity over Rd3BB (SEQ ID NO: 13))
3,B3,+ (+ = 1.5 to 5 relative activity over Rd3BB (SEQ ID NO: 13))
4,B4,+ (+ = 1.5 to 5 relative activity over Rd3BB (SEQ ID NO: 13))
5,B5,+ (+ = 1.5 to 5 relative activity over Rd3BB (SEQ ID NO: 13))
6,B6,+ (+ = 1.5 to 5 relative activity over Rd3BB (SEQ ID NO: 13))

# Test: HTP-analysis of supernatants pretreated with acid (MUGal hydrolysis)
# Format: biochemical
# Conditions: activity of the variant/activity of Rd3BB (SEQ ID NO: 13); challenge at pH 3.7
# Method in brief: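 Fluorescence of MUGal hydrolysis (Ex. 355 nm, Em. 448 nm) is read after sodium carbonate quench. The enzyme source is INVSc1 yeast culture supernatant, first exposed to pH 3.3-4.3 McIlvaine buffer at 37° C. for 1-3 h, then reacted at pH 4.8 for 30-180 minutes.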
row,Molecule,Relative Activity of GLA Variants After Challenge at pH 3.7
1,B1,++ (++ = >5 to 10 relative activity over Rd3BB (SEQ ID NO: 13))
2,B2,+ (+ = 1.5 to 5 relative activity over Rd3BB (SEQ ID NO: 13))
3,B3,+ (+ = 1.5 to 5 relative activity over Rd3BB (SEQ ID NO: 13))
4,B4,+ (+ = 1.5 to 5 relative activity over Rd3BB (SEQ ID NO: 13))
5,B5,+ (+ = 1.5 to 5 relative activity over Rd3BB (SEQ ID NO: 13))
6,B6,+ (+ = 1.5 to 5 relative activity over Rd3BB (SEQ ID NO: 13))

# Test: HTP-analysis of supernatants pretreated with base (MUGal hydrolysis)
# Format: biochemical
# Conditions: activity of the variant/activity of Rd3BB (SEQ ID NO: 13); challenge at pH 9.7
# Method in brief: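 GLA variants secreted from yeast INVSc1; culture supernatants pre-incubated with McIlvaine buffer pH 7.0–8.2 or 200 mM bicarbonate pH 9.1–9.7 at 37° C. for 1–18 h. Residual activity: MUGal (4 mM stock) hydrolysis at pH 4.3–4.8, 37° C., 30–180 min, carbonate quench; fluorescence Ex 355/Em 448 nm.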
row,Molecule,Relative Activity of GLA Variants After Challenge at pH 9.7
1,B1,++ (++ = >5 to 10 relative activity over Rd3BB (SEQ ID NO: 13))
2,B2,++ (++ = >5 to 10 relative activity over Rd3BB (SEQ ID NO: 13))
3,B3,+ (+ = 1.5 to 5 relative activity over Rd3BB (SEQ ID NO: 13))
4,B4,+ (+ = 1.5 to 5 relative activity over Rd3BB (SEQ ID NO: 13))
5,B5,+ (+ = 1.5 to 5 relative activity over Rd3BB (SEQ ID NO: 13))
6,B6,++ (++ = >5 to 10 relative activity over Rd3BB (SEQ ID NO: 13))
